Results published in article PMC6447540.

Molecular target: SAV1 (UniProt Q9H4B6)
Assay: biotin-peptide pull-down from cell lysate
Details: reference: unphosphorylated Akt1 peptide; sites Y26

## Akt1 PH domain peptide (from UniProt P31749) pY26 Akt1 peptide
  binding against the reference: weaker
